To fix the notation:
B1: HESX1 (parent)
chain: ENKPSTCSFSIERILGLDQKKDCV
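Also: lentivirally expressed fusions sorted by FACS into six bins by GFP to DsRed ratio, PSI derived from sequencing read proportions per bin multiplied by bin number.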

The data set covers variants of B1. Description: protein stability index of a GFP-peptide fusion (GPS, HEK-293T) (PSI 1-6); higher = more stable. Conditions: c terminus: a fixed tail appended.
As for ENKPPTCSFSIERILGLDQKKDCV [S5P], the protein stability index was determined as 3.48.

As to ENKPYTCSFSIERILGLDQKKDCV [S5Y], the protein stability index is 2.54. To ENKPATCSFSIERILGLDQKKDCV [S5A] belongs 2.94; to ENKPLTCSFSIERILGLDQKKDCV [S5L], 2.18. Turning to ENKPGTCSFSIERILGLDQKKDCV [S5G], the protein stability index turned out to be 3.31.

Regarding ENKPCTCSFSIERILGLDQKKDCV [S5C], the protein stability index is 2.71. In the case of ENKPVTCSFSIERILGLDQKKDCV [S5V] it was 2.5; in that of ENKPHTCSFSIERILGLDQKKDCV [S5H], 2.81. In the case of ENKPQTCSFSIERILGLDQKKDCV [S5Q] it was 2.89.

Turning to ENKPRTCSFSIERILGLDQKKDCV [S5R], the protein stability index amounted to 2.56. Consider ENKPETCSFSIERILGLDQKKDCV [S5E], for which the protein stability index turned out to be 3.77. To ENKPMTCSFSIERILGLDQKKDCV [S5M] belongs 2.75; to ENKPWTCSFSIERILGLDQKKDCV [S5W], 2.13.

On to ENKPKTCSFSIERILGLDQKKDCV [S5K], for which the protein stability index amounted to 2.85. To ENKPTTCSFSIERILGLDQKKDCV [S5T] belongs 3.42; to ENKPFTCSFSIERILGLDQKKDCV [S5F], 1.96; to ENKPNTCSFSIERILGLDQKKDCV [S5N], 3.09.

On to ENKPITCSFSIERILGLDQKKDCV [S5I], for which the protein stability index came out at 3.02. With ENKPDTCSFSIERILGLDQKKDCV [S5D], the protein stability index worked out at 3.16. As to ENKPSTCSWSIERILGLDQKKDCV [F9W], the protein stability index was determined as 2.42. To ENKPSTCSESIERILGLDQKKDCV [F9E] belongs 4.41; to ENKPSTCSKSIERILGLDQKKDCV [F9K], 4.3; to ENKPSTCSHSIERILGLDQKKDCV [F9H], 4.15. To ENKPSTCSYSIERILGLDQKKDCV [F9Y] belongs 3.52.

Turning to ENKPSTCSCSIERILGLDQKKDCV [F9C], the protein stability index turned out to be 3.43.

In the case of ENKPSTCSDSIERILGLDQKKDCV [F9D], the protein stability index turned out to be 4.24.

As for ENKPSTCSASIERILGLDQKKDCV [F9A], the protein stability index was 3.86. In the case of ENKPSTCSNSIERILGLDQKKDCV [F9N] it was 4.2. To ENKPSTCSGSIERILGLDQKKDCV [F9G] belongs 4.43. Regarding ENKPSTCSVSIERILGLDQKKDCV [F9V], the protein stability index worked out at 4.09.

ENKPSTCSISIERILGLDQKKDCV [F9I]: the protein stability index turned out to be 3.43.

As to ENKPSTCSMSIERILGLDQKKDCV [F9M], the protein stability index amounted to 2.79.

Consider ENKPSTCSQSIERILGLDQKKDCV [F9Q], for which the protein stability index was determined as 4.3. In the case of ENKPSTCSRSIERILGLDQKKDCV [F9R] it was 3.88; in that of ENKPSTCSSSIERILGLDQKKDCV [F9S], 3.97; in that of ENKPSTCSTSIERILGLDQKKDCV [F9T], 4.45. To ENKPSTCSLSIERILGLDQKKDCV [F9L] belongs 4.07. In the case of ENKPSTCSPSIERILGLDQKKDCV [F9P] it was 5.09; in that of ENKPSTCSFQIERILGLDQKKDCV [S10Q], 3.26; in that of ENKPSTCSFNIERILGLDQKKDCV [S10N], 3.27.

On to ENKPSTCSFKIERILGLDQKKDCV [S10K], for which the protein stability index was found to be 3.77. On to ENKPSTCSFFIERILGLDQKKDCV [S10F], for which the protein stability index was 2.84. With ENKPSTCSFCIERILGLDQKKDCV [S10C], the protein stability index was 2.38. To ENKPSTCSFPIERILGLDQKKDCV [S10P] belongs 4.28; to ENKPSTCSFAIERILGLDQKKDCV [S10A], 2.86. To ENKPSTCSFVIERILGLDQKKDCV [S10V] belongs 2.29; to ENKPSTCSFDIERILGLDQKKDCV [S10D], 4; to ENKPSTCSFWIERILGLDQKKDCV [S10W], 2.76.

With ENKPSTCSFEIERILGLDQKKDCV [S10E], the protein stability index was determined as 3.01. In the case of ENKPSTCSFHIERILGLDQKKDCV [S10H] it was 3.5; in that of ENKPSTCSFYIERILGLDQKKDCV [S10Y], 2.8. In the case of ENKPSTCSFGIERILGLDQKKDCV [S10G] it was 3.27; in that of ENKPSTCSFRIERILGLDQKKDCV [S10R], 2.71; in that of ENKPSTCSFTIERILGLDQKKDCV [S10T], 4.07. ENKPSTCSFMIERILGLDQKKDCV [S10M]: the protein stability index was determined as 2.48. As for ENKPSTCSFIIERILGLDQKKDCV [S10I], the protein stability index is 2.62.

As for ENKPSTCSFLIERILGLDQKKDCV [S10L], the protein stability index came out at 3.05. To ENKPSTRSFSIERILGLDQKKDCV [C7R] belongs 3.92; to ENKPSTSSFSIERILGLDQKKDCV [C7S], 3.98; to ENKPSTYSFSIERILGLDQKKDCV [C7Y], 3.43.

Turning to ENKPSTGSFSIERILGLDQKKDCV [C7G], the protein stability index is 3.87. To ENKPSTHSFSIERILGLDQKKDCV [C7H] belongs 3.91. In the case of ENKPSTNSFSIERILGLDQKKDCV [C7N], the protein stability index amounted to 4.05. As for ENKPSTFSFSIERILGLDQKKDCV [C7F], the protein stability index was determined as 3.11.

Turning to ENKPSTDSFSIERILGLDQKKDCV [C7D], the protein stability index is 4.13.

In the case of ENKPSTLSFSIERILGLDQKKDCV [C7L], the protein stability index is 2.94. Take ENKPSTISFSIERILGLDQKKDCV [C7I]: the protein stability index is 1.84. Regarding ENKPSTKSFSIERILGLDQKKDCV [C7K], the protein stability index came to 3.52. In the case of ENKPSTMSFSIERILGLDQKKDCV [C7M] it was 3.32; in that of ENKPSTVSFSIERILGLDQKKDCV [C7V], 3.17.

Take ENKPSTASFSIERILGLDQKKDCV [C7A]: the protein stability index stood at 3.58. To ENKPSTQSFSIERILGLDQKKDCV [C7Q] belongs 3.96. In the case of ENKPSTESFSIERILGLDQKKDCV [C7E] it was 4.23. Turning to ENKPSTPSFSIERILGLDQKKDCV [C7P], the protein stability index was determined as 4.01. For the variant ENKPSTTSFSIERILGLDQKKDCV [C7T], the protein stability index is 3.74.

Take ENKPSTWSFSIERILGLDQKKDCV [C7W]: the protein stability index worked out at 2.33. Turning to ENKPSDCSFSIERILGLDQKKDCV [T6D], the protein stability index amounted to 3.96. To ENKPSQCSFSIERILGLDQKKDCV [T6Q] belongs 3.12; to ENKPSGCSFSIERILGLDQKKDCV [T6G], 3.5. For ENKPSKCSFSIERILGLDQKKDCV [T6K], the protein stability index is 2.41. As for ENKPSICSFSIERILGLDQKKDCV [T6I], the protein stability index was determined as 2.9.

For the variant ENKPSRCSFSIERILGLDQKKDCV [T6R], the protein stability index is 2. To ENKPSACSFSIERILGLDQKKDCV [T6A] belongs 3.46.

With ENKPSWCSFSIERILGLDQKKDCV [T6W], the protein stability index turned out to be 2.53.

As for ENKPSFCSFSIERILGLDQKKDCV [T6F], the protein stability index is 2.85.

Take ENKPSMCSFSIERILGLDQKKDCV [T6M]: the protein stability index was determined as 2.37. To ENKPSVCSFSIERILGLDQKKDCV [T6V] belongs 2.71; to ENKPSSCSFSIERILGLDQKKDCV [T6S], 3.12. Take ENKPSLCSFSIERILGLDQKKDCV [T6L]: the protein stability index worked out at 3.14.

For ENKPSECSFSIERILGLDQKKDCV [T6E], the protein stability index stood at 3.39. In the case of ENKPSHCSFSIERILGLDQKKDCV [T6H] it was 3.24; in that of ENKPSYCSFSIERILGLDQKKDCV [T6Y], 3.16; in that of ENKPSPCSFSIERILGLDQKKDCV [T6P], 2.77. In the case of ENKPSCCSFSIERILGLDQKKDCV [T6C] it was 2.43.

The values are drawn from the supplement of paper PMC10567573.
